One molecule from patent publication US8871276B2, “Beta-casein assemblies for mucosal delivery of therapeutic bioactive agents” (Technion Research and Development Foundation Ltd., priority 2008, dated 2014) can be followed below.

A short description of data set [1]: Wide-angle X-ray diffraction (XRD). It counts as physicochemical. The following applies: powder / lyophilized specimen, 1:8 mole ratio where loaded. How it is done: The operating conditions were CuKα radiation (0.154 nm), voltage 40 kV and current 40 mA, in 20 recording range from 3° to 65°, at room temperature.
Data set [2] in a line: Small angle X-ray scattering (SAXS) of micelles. Type of data set: physicochemical. The following applies: 1 wt % β-casein, empty or loaded 1:8 protein:celecoxib, pH ~7.

B1: β-casein: bovine β-casein self-assembled into unloaded micelles in acidic or neutral buffer (protein, UniProt P02666 16-224, looked up)
Beta-casein: RELEELNVPGEIVESLSSSEESITRINKKIEKFQSEEQQQTEDELQDKIHPFAQTQSLVYPFPGPIPNSLPQNIPPLTQTPVVVPPFLQPEVMGVSKVKEAMAPKHKEMPFPKYPVEPFTESQSLTLTDVENLHLPLPLLQSWMHQPHQPLPPTVMFPPQSVLSLSQSKVLPVPQKAVPYPQRDMPIQAFLLYQEPVLGPVRGPFPIIV
modifications: self-assembled micelles
notes: bovine β-casein self-assembled into unloaded micelles in acidic or neutral buffer
Take B1: the “Solid form by X-ray diffraction” value in data set [1] was “amorphous pattern”. The molecule also showed a Density in data set [2] of 1.23 g/mL.
